Source: article PMC6405930, “Conservation of the Amyloid Interactome Across Diverse Fibrillar Structures” (Scientific Reports, 2019)

Key:
Ab1 fibrils [1] = test system: T1, Ab1 fibrils; test: Fibril incubation with plasma, quantitative MS/MS of bound proteins; assay type: binding, human; parameters: key to Identification status of plasma protein bound: Ab1: *: Identified, but not quantified; —: Not identified in any of the samples; settings: for Relative composition of plasma proteins bound: Ab1: 50:1 w/w plasma protein:fibril
T1 construct: Synthetic amyloid β peptide 1–40 was purchased from Caslo Aps (Lyngby, Denmark); purchased Caslo Aps (Lyngby, Denmark); host or cells: synthetic peptide
Method: (§1) Plasma and CSF solutions were centrifuged (40,000 g, 20 min) to remove any aggregates. The protein concentration was determined using 280 nm absorbance assuming 1 Abs = 1 mg/mL. Samples with fibril material (20 μg), plasma (500 μg) or CSF (40 μg) proteins were prepared in 200 μL PBS buffer with 5 mM EDTA. Control samples (without fibril material) were prepared similarly. All samples were incubated at room temperature for one hour under gentle agitation. Fibrils and fibril-bound proteins were pelleted by centrifugation at 17,000 g for 30 minutes. The supernatant (175 μL) was removed and the aggregate was re-suspended in 175 μL PBS and pelleted again before further preparation for gel analysis and spin-filter assisted digest for quantitative MS/MS.
(§2) The fibril-protein pellets were transferred to spin-filters (0.22 μm), washed twice in PBS (100 μL) and once in 1 M NaCl (100 μL). The fibrils and fibril-bound proteins were dissolved by one-hour incubation in 100 μL 6 M guanidinium chloride followed by elution from the spin-filter. The eluted proteins were loaded onto a 3 kDa MWCO filter unit for filter-assisted unfolding, reduction, alkylation, and trypsin digestion. In brief, samples were washed twice in 8 M urea, once in 8 M urea with 50 mM DTT, once in 8 M urea with 50 mM iodoaceteamide, and twice in 8 M Urea. The filter units were dried by centrifugation (14,000 g in 30 minutes) after every addition. Trypsin digestion was carried out with 0.25 μg sequencing grade trypsin from Sigma Aldrich in 50 mM ammonium bicarbonate overnight at 37 °C. The tryptic peptides were collected by centrifugation, acidified with TFA (0.1%) and micro-purified using POROS R2 column material (Applied Biosystems) packed in P200 pipette tips (Sarstedt).
(§3) LC-MS/MS analyses were performed on an EASY-nLC II system (Thermo Fisher Scientific) connected to a TripleTOF 5600+ mass spectrometer (Sciex) equipped with a NanoSpray III source (Sciex) and operated under Analyst TF 1.6.0 control.
(§4) The micro-purified tryptic peptides were dissolved in 0.1% formic acid, injected and trapped on an in-house packed trap column (2 cm × 100 μm I.D) with RP ReproSil-Pur C18-AQ 3 μm resin (Dr. Maisch GmbH). Peptides were eluted from the trap column and separated on a 15 cm analytical column (75 μm i.d.) packed in-house in a pulled emitter with RP ReproSil-Pur C18-AQ 3 μm resin (Dr. Maisch GmbH). Elution from the analytical column was performed with a linear gradient from 5% to 35% phase B (90% acetonitrile with 0.1% formic acid) over 20 min for protein identification and 50 min for quantitative analysis, respectively.
(§5) All samples were analysed three times, yielding nine MS/MS experiments for each fibril for both plasma and CSF. For the area-based extracted ion chromatogram (XIC) quantification, the acquisition method was set up as an information-dependent acquisition (IDA) experiment collecting up to 25 MS/MS spectra in each 1.6 sec cycle using an exclusion window of 6 sec.
(§6) XIC quantification was based on the average ion intensity of the three most abundant peptides for each protein. Only proteins quantified in at least four out of nine MS/MS experiments per fibril were included in the quantification. The total ion scores were visualized after grouping the proteins according to function (Figure S11).
(§7) For each MS/MS experiment, the ion intensities of the individual proteins were normalized to the total ion intensity of that MS/MS experiment to achieve a relative protein composition. The contribution of each protein was averaged over all nine MS/MS experiments (Tables 1 and 2).

Ab2 fibrils [2] = test system: T2, Ab2 fibrils; test: as above; assay type: binding, human; parameters: key to Identification status of plasma protein bound: Ab2: *: Identified, but not quantified; —: Not identified in any of the samples; settings: for Identification status of plasma protein bound: Ab2: symbol cells; for Relative composition of plasma proteins bound: Ab2: 50:1 w/w plasma protein:fibril
T2 construct: Two structurally distinct fibrils of the Aβ(1–40) peptide associated with AD
Method: as §1, with “Samples with fibril material (20 μg), plasma (500 μg) or CSF (40 μg) proteins were prepared in 200 μL PBS buffer with 5 mM EDTA.” left out
as §2, §3, §4, §5, §6, §7

glucagon fibrils [3] = molecular target: T3, glucagon fibrils (Homo sapiens, UniProt P01275); test: as above; assay type: binding; parameters: key to Identification status of plasma protein bound: Glucagon: *: Identified, but not quantified; —: Not identified in any of the samples; settings: for Relative composition of plasma proteins bound: Glucagon: 50:1 w/w plasma protein:fibril
T3 construct: fibrils of the peptide hormone glucagon
Method: as §1, with “Samples with fibril material (20 μg), plasma (500 μg) or CSF (40 μg) proteins were prepared in 200 μL PBS buffer with 5 mM EDTA.” left out
as §2, §3, §4, §5, §6, §7

C-36 fibrils [4] = molecular target: T4, C-36 fibrils (Homo sapiens, UniProt P01009); test: as above; assay type: binding; settings: 50:1 w/w plasma protein:fibril
T4 construct: the 36 residue C-terminal fragment of α1-antitrypsin (C-36)
Method: as §1, with “Samples with fibril material (20 μg), plasma (500 μg) or CSF (40 μg) proteins were prepared in 200 μL PBS buffer with 5 mM EDTA.” left out
as §2, §3, §4, §5, §6, §7

αSN fibrils [5] = molecular target: T5, αSN fibrils (Homo sapiens, UniProt P37840); test: as above; assay type: binding; settings: 50:1 w/w plasma protein:fibril
Method: as §1, with “Samples with fibril material (20 μg), plasma (500 μg) or CSF (40 μg) proteins were prepared in 200 μL PBS buffer with 5 mM EDTA.” left out
as §2, §3, §4, §5, §6, §7

FAS4-AD aggregates [6] = test system: T6, FAS4-AD aggregates; test: as above; assay type: binding, human; parameters: key to Identification status of plasma protein bound: FAS4-AD: *: Identified, but not quantified; —: Not identified in any of the samples; settings: for Relative composition of plasma proteins bound: FAS4-AD: 50:1 w/w plasma protein:fibril; for Identification status of plasma protein bound: FAS4-AD: symbol cells
T6 construct: aggregates of a mutated version of the FAS1-4 domain of TGFBIp
Method: as §1, with “Samples with fibril material (20 μg), plasma (500 μg) or CSF (40 μg) proteins were prepared in 200 μL PBS buffer with 5 mM EDTA.” left out
as §2, §3, §4, §5, §6, §7

Ab1 fibrils [7] = test system: T1, Ab1 fibrils; test: Fibril incubation with CSF, quantitative MS/MS of bound proteins; assay type: binding, human; settings: 4:1 w/w CSF protein:fibril
Method: as §1, with “Samples with fibril material (20 μg), plasma (500 μg) or CSF (40 μg) proteins were prepared in 200 μL PBS buffer with 5 mM EDTA.” left out
as §2, §3, §4, §5, §6, §7

Ab2 fibrils [8] = test system: T2, Ab2 fibrils; test: as above; assay type: binding, human; settings: 4:1 w/w CSF protein:fibril
Method: as §1, with “Samples with fibril material (20 μg), plasma (500 μg) or CSF (40 μg) proteins were prepared in 200 μL PBS buffer with 5 mM EDTA.” left out
as §2, §3, §4, §5, §6, §7

glucagon fibrils [9] = molecular target: T3, glucagon fibrils; test: as above; assay type: binding; settings: 4:1 w/w CSF protein:fibril
Method: as §1, with “Samples with fibril material (20 μg), plasma (500 μg) or CSF (40 μg) proteins were prepared in 200 μL PBS buffer with 5 mM EDTA.” left out
as §2, §3, §4, §5, §6, §7

C-36 fibrils [10] = molecular target: T4, C-36 fibrils; test: as above; assay type: binding; settings: 4:1 w/w CSF protein:fibril
Method: as §1, with “Samples with fibril material (20 μg), plasma (500 μg) or CSF (40 μg) proteins were prepared in 200 μL PBS buffer with 5 mM EDTA.” left out
as §2, §3, §4, §5, §6, §7

αSN fibrils [11] = molecular target: T5, αSN fibrils; test: as above; assay type: binding; settings: 4:1 w/w CSF protein:fibril
Method: as §1, with “Samples with fibril material (20 μg), plasma (500 μg) or CSF (40 μg) proteins were prepared in 200 μL PBS buffer with 5 mM EDTA.” left out
as §2, §3, §4, §5, §6, §7

FAS4-AD aggregates [12] = test system: T6, FAS4-AD aggregates; test: as above; assay type: binding, human; parameters: key to Identification status of CSF protein bound: FAS4-AD: *: Identified, but not quantified; —: Not identified in any of the samples; settings: symbol cells
Method: as §1, with “Samples with fibril material (20 μg), plasma (500 μg) or CSF (40 μg) proteins were prepared in 200 μL PBS buffer with 5 mM EDTA.” left out
as §2, §3, §4, §5, §6, §7

T4 sequence (P01009 383-418 limits assumed): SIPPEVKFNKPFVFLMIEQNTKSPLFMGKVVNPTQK
T3 sequence (P01275 53-81 limits assumed): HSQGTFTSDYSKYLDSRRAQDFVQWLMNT

Substance	Identification status of plasma protein bound: Ab1 (Ab1 fibrils [1]; symbol cells)	Identification status of plasma protein bound: Ab2 (Ab2 fibrils [2])	Identification status of plasma protein bound: Glucagon (glucagon fibrils [3]; symbol cells)	Relative composition of plasma proteins bound: C-36 (C-36 fibrils [4])	Relative composition of plasma proteins bound: αSN (αSN fibrils [5])	Relative composition of plasma proteins bound: FAS4-AD (FAS4-AD aggregates [6])	Relative composition of plasma proteins bound: Ab1 (Ab1 fibrils [1])	Relative composition of plasma proteins bound: Glucagon (glucagon fibrils [3])	Relative composition of plasma proteins bound: αSN (αSN fibrils [5]; listed as ApoC-III)	Identification status of plasma protein bound: FAS4-AD (FAS4-AD aggregates [6])	Relative composition of plasma proteins bound: Ab2 (Ab2 fibrils [2])	Relative composition of CSF proteins bound: Ab1 (Ab1 fibrils [7])	Relative composition of CSF proteins bound: Ab2 (Ab2 fibrils [8])	Relative composition of CSF proteins bound: Glucagon (glucagon fibrils [9])	Relative composition of CSF proteins bound: C-36 (C-36 fibrils [10])	Relative composition of CSF proteins bound: αSN (αSN fibrils [11])	Identification status of CSF protein bound: FAS4-AD (FAS4-AD aggregates [12])
Apolipoprotein C-I: plasma protein bound to fibrils (TPDVSSALDKLKEFGNTLEDKARELISRIKQSELSAKMREWFSETFQKVKEKLKIDS; UniProt P02654 27-83, looked up)	*	*	*	0.6 ± 0.4 % of total protein	5.5 ± 2.1 % of total protein	1.8 ± 0.1 % of total protein											
Apolipoprotein C-III: plasma protein bound to fibrils		*		4.9 ± 0.3 % of total protein	11.7 ± 3.0 % of total protein		0.9 ± 0.1 % of total protein	0.3 ± 0.0 % of total protein	11.7 % of total protein	*							
Coagulation factor IX: plasma protein bound to fibrils				0.2 ± 0.0 % of total protein	0.3 ± 0.1 % of total protein		0.2 ± 0.0 % of total protein	0.1 ± 0.0 % of total protein		*	0.3 ± 0.1 % of total protein						
Dickkopf-related protein 3: CSF protein bound to fibrils												7.2 ± 0.3 % of total protein	5.5 ± 2.2 % of total protein	1.5 ± 0.4 % of total protein	3.9 ± 1.5 % of total protein	10.9 ± 1.0 % of total protein	—
Fibrinogen β chain: plasma protein bound to fibrils				9.1 ± 0.8 % of total protein	7.7 ± 2.3 % of total protein	1.8 ± 0.2 % of total protein	11.8 ± 1.1 % of total protein	8.9 ± 1.1 % of total protein			7.5 ± 0.9 % of total protein						
